Patent publication US5972698
Like-named read-outs stand apart in the source and are kept apart here.

Key:
[1] = biological target: human cathepsin G (human) (UniProt P08311)
[2] = biological target: human plasmin (human) (UniProt P00747)
[3] = biological target: human thrombin (human) (UniProt P00734)
[4] = biological target: porcine pancreatic kallikrein (porcine) (UniProt P00752)
[5] = biological target: human tryptase (purified from human lung tissue) (human) (UniProt Q15661)
[6] = biological target: human tryptase (purified from human lung tissue) (human) (UniProt Q15661); remark: listed apart in the source
[7] = biological target: human tryptase (purified from human lung tissue) (human) (UniProt Q15661); remark: listed apart in the source
[8] = biological target: human cathepsin G (human) (UniProt P08311); assay: enzyme inhibition at 0.2 µM inhibitor, Table 5
[9] = biological target: human factor Xa (human) (UniProt P00742); assay: enzyme inhibition at 0.2 µM inhibitor, Table 5
[10] = biological target: human neutrophil elastase (human) (UniProt P08246); assay: enzyme inhibition at 0.2 µM inhibitor, Table 5
[11] = biological target: human plasma kallikrein (human) (UniProt P03952); assay: enzyme inhibition at 0.2 µM inhibitor, Table 5
[12] = biological target: human plasmin (human) (UniProt P00747); assay: enzyme inhibition at 0.2 µM inhibitor, Table 5
[13] = biological target: human thrombin (human) (UniProt P00734); assay: enzyme inhibition at 0.2 µM inhibitor, Table 5
[14] = biological target: human urokinase (human) (UniProt P00749); assay: enzyme inhibition at 0.2 µM inhibitor, Table 5
[15] = biological target: porcine pancreatic elastase (porcine) (UniProt P00772); assay: enzyme inhibition at 0.2 µM inhibitor, Table 5
[16] = biological target: porcine pancreatic kallikrein (porcine) (UniProt P00752); assay: enzyme inhibition at 0.2 µM inhibitor, Table 5
[17] = biological target: bovine chymotrypsin (bovine) (UniProt P00766); assay: enzyme inhibition, steady state velocities on Suc-Val-Pro-Phe-pNA, tight binding fit
[18] = biological target: bovine trypsin (bovine) (UniProt P00760); assay: enzyme inhibition, steady state velocities on Tos-Gly-Pro-Arg-pNA, tight binding fit
[19] = biological target: human tryptase (purified from human lung tissue) (human) (UniProt Q15661); assay: as above
[20] = biological target: human tryptase (purified from human lung tissue) (human) (UniProt Q15661); assay: enzyme inhibition, steady state velocities on Tos-Gly-Pro-Arg-pNA, tight binding fit; Ki for the inhibition of two of the four subunits of the tryptase-tetramer
[21] = biological target: bovine trypsin (bovine) (UniProt P00760)
Target sequence in this assay (P00760 24-246): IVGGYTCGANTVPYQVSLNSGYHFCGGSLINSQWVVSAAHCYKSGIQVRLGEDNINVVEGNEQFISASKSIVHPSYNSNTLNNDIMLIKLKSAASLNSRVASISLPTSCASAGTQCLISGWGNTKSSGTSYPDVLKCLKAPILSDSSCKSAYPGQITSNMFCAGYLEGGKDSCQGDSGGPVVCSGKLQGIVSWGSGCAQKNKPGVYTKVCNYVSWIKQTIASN

[22] = biological target: human tryptase (purified from human lung tissue) (human) (UniProt Q15661); remark: listed apart in the source
[23] = biological target: human tryptase (purified from human lung tissue) (human) (UniProt Q15661); assay: enzyme inhibition, tos-Gly-Pro-Arg-pNa as substrate

recombinant leech-derived tryptase inhibitor form C, secreted by Saccharomyces cerevisiae (strain S-78 with pRM 9.1.4), sequence (chain): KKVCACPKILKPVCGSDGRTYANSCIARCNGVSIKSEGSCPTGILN

leech-derived tryptase inhibitor (isolated from extract of the medical leech Hirudo medicinalis)
amidolytic activity of cathepsin G on Suc-Val-Pro-Phe-pNA, inhibitor at 0.2 µM [1]: 11% | amidolytic activity of plasmin on Tos-Gly-Pro-Lys-pNA, inhibitor at 0.2 µM [2]: 30% | amidolytic activity of thrombin on Tos-Gly-Pro-Arg-pNA, inhibitor at 0.2 µM [3]: 12% | amidolytic activity of tissue kallikrein on D-Val-Leu-Arg-pNA, inhibitor at 0.2 µM [4]: 14% | amidolytic activity of tryptase on tos-Gly-Pro-Arg-pNa [5]: 50% | tryptase-induced breakdown of vasoactive intestinal peptide (VIP), reversed phase HPLC [6]: 66% | tryptase-induced growth of HaCaT keratinocytes (3H-thymidine incorporation) [7]: 99% | Ki relative to the complex with tryptase (times higher) [8]: > 200 times | Ki relative to the complex with tryptase (times higher) [9]: > 200 times | Ki relative to the complex with tryptase (times higher) [10]: > 200 times | Ki relative to the complex with tryptase (times higher) [11]: > 200 times | Ki relative to the complex with tryptase (times higher) [12]: > 200 times | Ki relative to the complex with tryptase (times higher) [13]: > 200 times | Ki relative to the complex with tryptase (times higher) [14]: > 200 times | Ki relative to the complex with tryptase (times higher) [15]: > 200 times | Ki relative to the complex with tryptase (times higher) [16]: > 200 times | Ki [17]: 20 nM | Ki [nM], first of the two columns so headed [17]: 137 nM | Ki [18]: 0.9 nM | Ki [nM], first of the two columns so headed [18]: 4.7 nM | Ki [nM], first of the two columns so headed [19]: 1.8 nM | Ki [20]: 1.4 nM

recombinant leech-derived tryptase inhibitor form C, secreted by Saccharomyces cerevisiae (strain S-78 with pRM 9.1.4)
trypsin inhibition assay (residual trypsin activity on Tos-Gly-Pro-Arg-p-NA) [21]: 60% | amidolytic activity of tryptase on tos-Gly-Pro-Arg-pNa [22]: 50% | Ki [23]: 1.9 nM
